Data set [1] concerns the molecule itself. The data set can be described thus: negative-stain electron microscopy; dsDNA-free AIM2FL variants at 2 uM adsorbed to carbon grids, stained with 1% uranyl formate or uranyl acetate; filaments.
Data set [2] deals with the molecule itself. Nature of the data set: negative stain electron microscopy; purified protein incubated 30 min with λdsDNA (wild type also with supercoiled and nicked circular plasmids), 160 mM KCl; filament formation on dsDNA.

Numbering of substitutions follows the chain as printed. Names and notes keep the numbering of the source.

B1: E147A-AIM2FL (natural protein, UniProt O14862 1-343, looked up)
chain: MESKYKEILLLTGLDNITDEELDRFKFFLSDEFNIATGKLHTANRIQVATLMIQNAGAVSAVMKTIRIFQKLNYMLLAKRLQEEKEKVDKQYKSVTKPKPLSQAEMSPAASAAIRNDVAKQRAAPKVSPHVKPEQKQMVAQQESIRAGFQKRCLPVMVLKAKKPFTFETQEGKQEMFHATVATEKEFFFVKVFNTLLKDKFIPKRIIIIARYYRHSGFLEVNSASRVLDAESDQKVNVPLNIIRKAGETPKINTLQTQPLGTIVNGLFVVQKVTEKKKNILFDLSDNTGKMEVLGVRNEDTMKCKEGDKVRLTFFTLSKNGEKLQLTSGVHSTIKVIKAKKKT
notes: AIM2 (absent-in-melanoma-2), full length, residues 1-343, with E147A in the HIN200 domain; source: E. coli ER2566, purified (amylose resin, HiTrap-SP, TEV cleavage, gel filtration); not shown: MBP, N-terminal, cleaved
For the protein B1, the binding result in data set [1] is given as “binds”.

B2: T50A-AIM2FL (natural protein, UniProt O14862 1-343, looked up)
chain: B1 chain with T50A, A147E
notes: AIM2 (absent-in-melanoma-2), full length, residues 1-343, with T50A in the PYD; source: E. coli ER2566, purified (amylose resin, HiTrap-SP, TEV cleavage, gel filtration); not shown: MBP, N-terminal, cleaved
Regarding B2, the binding result in data set [1] is reported as “binds”.

B3: L10A-L11A-AIM2^FL (natural protein, UniProt O14862 1-343, looked up)
chain: B1 chain with L10A, L11A, A147E
notes: AIM2 (absent-in-melanoma-2), residues 1-343, mutations in the PYD; Probably with the MBP tag removed as for wild-type AIM2^FL; source: E. coli ER2566, purified
For B3, the binding result in data set [2] is “binds”.

B4: I46D mutant of full-length AIM2 (natural protein, UniProt O14862 1-343, looked up)
chain: B1 chain with I46D, A147E
notes: AIM2 (absent-in-melanoma-2), residues 1-343, mutation in the PYD; Probably with the MBP tag removed as for wild-type AIM2^FL; source: E. coli ER2566, purified
As for B4, in data set [2], the binding result was “binds”.

B5: Q258A-AIM2FL (natural protein, UniProt O14862 1-343, looked up)
chain: B1 chain with A147E, Q258A
notes: AIM2 (absent-in-melanoma-2), full length, residues 1-343, with Q258A in the HIN200 domain; source: E. coli ER2566, purified (amylose resin, HiTrap-SP, TEV cleavage, gel filtration); not shown: MBP, N-terminal, cleaved
B5: the binding result in data set [1] was “binds”.
